Source: patent US20220185894A1 (F STAR THERAPEUTICS, published 2022)
Residue numbers refer to the chain shown, from its start.

T1: mouse LAG-3 expressed on cells (mouse, UniProt Q61790 24-521)
T1 construct: also called mLAG-3; murine LAG-3 HEK
T1 sequence: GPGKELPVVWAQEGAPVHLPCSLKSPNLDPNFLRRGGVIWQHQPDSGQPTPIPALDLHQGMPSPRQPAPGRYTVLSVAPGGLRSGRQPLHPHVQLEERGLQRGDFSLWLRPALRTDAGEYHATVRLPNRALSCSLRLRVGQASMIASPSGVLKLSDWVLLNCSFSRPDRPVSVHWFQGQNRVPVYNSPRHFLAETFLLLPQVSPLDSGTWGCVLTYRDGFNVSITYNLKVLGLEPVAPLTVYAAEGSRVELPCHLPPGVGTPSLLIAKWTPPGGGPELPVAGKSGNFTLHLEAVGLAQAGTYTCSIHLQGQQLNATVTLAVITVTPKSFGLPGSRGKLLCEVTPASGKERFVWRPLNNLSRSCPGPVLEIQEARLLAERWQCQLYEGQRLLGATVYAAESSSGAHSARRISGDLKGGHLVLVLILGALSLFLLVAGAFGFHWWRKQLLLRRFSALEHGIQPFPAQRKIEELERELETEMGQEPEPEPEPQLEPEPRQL

T2: human FcγRIIa (R&D Systems, 1330-CD) (human, UniProt P12318 36-218, limits assumed)
T2 construct: Bought recombinant protein
T2 sequence (looked up): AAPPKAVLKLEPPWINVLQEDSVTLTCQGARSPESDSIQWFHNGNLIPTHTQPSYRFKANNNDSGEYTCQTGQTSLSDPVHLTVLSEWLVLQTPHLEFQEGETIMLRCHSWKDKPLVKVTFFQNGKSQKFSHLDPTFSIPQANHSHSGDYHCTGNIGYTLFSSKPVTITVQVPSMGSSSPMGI

T3: human FcγRIIb/c (R&D Systems, 1875-CD) (human, UniProt P31994 46-217)
T3 construct: Bought recombinant protein
T3 sequence (looked up): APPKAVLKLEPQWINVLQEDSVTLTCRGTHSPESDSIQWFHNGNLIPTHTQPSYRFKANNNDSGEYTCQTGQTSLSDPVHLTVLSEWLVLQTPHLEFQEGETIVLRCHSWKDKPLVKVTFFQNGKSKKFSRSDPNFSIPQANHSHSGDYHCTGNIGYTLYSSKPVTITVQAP

T4: cynomolgus LAG-3 expressed on cells (cynomolgus monkey, UniProt P18627 24-525 (human entry))
T4 construct: also called cLAG-3; cyno LAG-3
T4 chain: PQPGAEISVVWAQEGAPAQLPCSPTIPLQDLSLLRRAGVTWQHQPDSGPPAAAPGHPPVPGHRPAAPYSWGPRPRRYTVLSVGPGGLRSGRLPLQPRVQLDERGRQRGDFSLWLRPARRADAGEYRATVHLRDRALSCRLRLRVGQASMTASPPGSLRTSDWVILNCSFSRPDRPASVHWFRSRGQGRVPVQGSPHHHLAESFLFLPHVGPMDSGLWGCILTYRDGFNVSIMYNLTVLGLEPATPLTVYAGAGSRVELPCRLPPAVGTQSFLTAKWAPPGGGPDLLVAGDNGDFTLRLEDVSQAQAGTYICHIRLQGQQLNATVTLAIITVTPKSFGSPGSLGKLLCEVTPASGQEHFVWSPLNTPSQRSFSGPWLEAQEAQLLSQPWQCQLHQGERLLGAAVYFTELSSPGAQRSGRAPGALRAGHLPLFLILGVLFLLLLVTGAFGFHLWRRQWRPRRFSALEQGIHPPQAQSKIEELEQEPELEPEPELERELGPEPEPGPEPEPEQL

B1: control anti-human LAG-3 mAb 25F7 (antibody, human IgG1, kappa, L234A L235A, V domains shown)
VH: QVQLQQWGAGLLKPSETLSLTCAVYGGSFSDYYWNWIRQPPGKGLEWIGEINHRGSTNSNPSLKSRVTLSLDTSKNQFSLKLRSVTAADTAVYYCAFGYSDYEYNWFDPWGQGTLVTVSS
VL: EIVLTQSPATLSLSPGERATLSCRASQSISSYLAWYQQKPGQAPRLLIYDASNRATGIPARFSGSGSGTDFTLTISSLEPEDFAVYYCQQRSNWPLTFGQGTNLEIKR
notes: also called benchmark anti-human LAG-3 mAb
B2: anti-human LAG-3/FITC mock mAb2 FS18-7-9/4420 comprising LALA mutation (bispecific antibody, human IgG1, kappa, L234A L235A)
heavy: EVKLDETGGGLVQPGRPMKLSCVASGFTFSDYWMNWVRQSPEKGLEWVAQIRNKPYNYETYYSDSVKGRFTISRDDSKSSVYLQMNNLRVEDMGIYYCTGSYYGMDYWGQGTSVTVSSASTKGPSVFPLAPSSKSTSGGTAALGCLVKDYFPEPVTVSWNSGALTSGVHTFPAVLQSSGLYSLSSVVTVPSSSLGTQTYICNVNHKPSNTKVDKKVEPKSCDKTHTCPPCPAPEAAGGPSVFLFPPKPKDTLMISRTPEVTCVVVDVSHEDPEVKFNWYVDGVEVHNAKTKPREEQYNSTYRVVSVLTVLHQDWLNGKEYKCKVSNKALPAPIEKTISKAKGQPREPQVYTLPPSWDEPWGEDVSLTCLVKGFYPSDIAVEWESNGQPENNYKTTPPVLDSDGSFFLYSKLTVPYDRWVWPDEFSCSVMHEALHNHYTQKSLSLSPG
light: DVVMTQTPLSLPVSLGDQASISCRSSQSLVHSNGNTYLRWYLQKPGQSPKVLIYKVSNRFSGVPDRFSGSGSGTDFTLKISRVEAEDLGVYFCSQSTHVPWTFGGGTKLEIKRTVAAPSVFIFPPSDEQLKSGTASVVCLLNNFYPREAKVQWKVDNALQSGNSQESVTEQDSKDSTYSLSSTLTLSKADYEKHKVYACEVTHQGLSSPVTKSFNRGEC
notes: Human IgG1 format; also called FS18-7-9/4420LALA; FS18-7-09/4420LALA
B3: anti-human LAG-3/FITC mock mAb2 FS18-7-62/4420 comprising LALA mutation (bispecific antibody, human IgG1, kappa, L234A L235A)
heavy: B2 heavy with Q387I, N390W
light: B2 light
notes: also called FS18-7-62/4420LALA; FS18-7-62 in mock mAb2 format
B4: anti-human LAG-3/FITC mock mAb2 FS18-7-78/4420 comprising LALA mutation (bispecific antibody, human IgG1, kappa, L234A L235A)
heavy: B2 heavy with Q387Y, P388K, N390E
light: B2 light
notes: also called FS18-7-78/4420LALA; FS18-7-78 in mock mAb2 format

Key:
[1] = molecular target: T1, mouse LAG-3 expressed on cells; test: flow cytometry on HEK cells expressing mouse LAG-3
Procedure: HEK cells expressing mLAG-3 grown in DMEM (Life Technologies, 61965-026) containing 10% FBS (Life Technologies, 10270-1-6), 100 μg/ml Hygromycin B (Melford Laboratories Ltd, Z2475), 15 μg/ml Blasticidin (Melford Laboratories Ltd, B1105) and 1 μg/ml Doxycyclin (Sigma, D9891) were detached from tissue culture flasks using cell dissociation buffer (Life Technologies, 13151-014). Cells were collected by centrifuged at 1500 rpm for 3 min at 4° C. to pellet the cells and then resuspended in 1×DPBS then seeded in V-bottom 96-well plates (Costar, 3897) at 1.2×10⁵ cells/well in 30 μl. A 1:1 volume of a dilution series of the mAb² (or control mAb) was added and incubated with the cells for 1 h at 4° C. The plates were washed and secondary antibody (Anti-human Fc-488, Jackson ImmunoResearch, 109-546-098) was diluted 1:1000 in PBS and 60 μl was added to the cells for 30 min at 4° C. (plates were kept in the dark). The plates were then washed and the cells resuspended in 60 μl PBS containing 1 μg/ml DAPI (Biotium, 40043). The plates were read using Canto II flow cytometer (BD Bioscience). Dead cells were excluded and the fluorescence in the FITC channel (488 nm/530/30) was measured. The data was fitted using log (agonist) vs response in GraphPad Prism Software.

[2] = molecular target: T5, human FcγRI (R&D Systems, 1257-FC) (human, UniProt P12314 16-288); test: SPR, Biacore T200; FcγR immobilised, 200 µg/ml injected
T5 construct: Bought recombinant protein
Procedure: (§1) The introduction of the LALA mutation in the CH2 domain of human IgG1 is known to reduce Fc γ receptor binding (Bruhns, P., et al. (2009); and Xu, D. et al. (2000)). […] The human FcγR binding assay was performed on a Biacore T200 instrument (GE Healthcare) using the Fcabs in the mock mAb² format. […] For each immobilized chip a flow cell was left blank for background subtraction. FcγR were immobilized using a concentration of 5 μg/ml in sodium acetate pH5 (ForteBio, 18-1069) and injected at a flow rate of 10 μl/min in 15 second cycles until the required immobilization level was reached.
(§2) The flow cells were regenerated by injecting 10 mM sodium hydroxide (VWR, 28244.262) at a flow rate of 100 μl/min for 30 seconds. The data analysis was performed with BiaEvaluation software version 3.2 RC1 by double referencing against the blank flow cell (without immobilized FcγR) and subtracting a buffer cycle from test mAb².

[3] = molecular target: T6, human FcγRIIIa (R&D Systems, 4325-FC) (human, UniProt P08637 17-208); test: as above
T6 construct: Bought recombinant protein
Procedure: as §1, §2

[4] = molecular target: T2, human FcγRIIa (R&D Systems, 1330-CD); test: SPR, Biacore T200; FcγR immobilised, 500 µg/ml injected
Procedure: as §1, §2

[5] = molecular target: T3, human FcγRIIb/c (R&D Systems, 1875-CD); test: as above
Procedure: as §1, §2

[6] = molecular target: T4, cynomolgus LAG-3 expressed on cells; test: flow cytometry on DO11.10 cells expressing cynomolgus LAG-3
Procedure: DO11.10:LAG-3 cell suspensions were prepared in PBS+2% BSA (Sigma, A7906) and seeded at […] with 50 μl/well in V-bottomed 96-well plates (Costar, 3897). […] The plates were washed and 100 μl/well of secondary antibody (anti-human Fc-488 antibody, Jackson ImmunoResearch, 109-546-098) diluted 1:1000 in PBS+2% BSA was then added and incubated for 30 mins at 4° C. in the dark. The plates were washed and resuspended in 100 μl of PBS containing DAPI (Biotium, 40043) at […]. The plates were read using Canto II flow cytometer (BD Bioscience). The dead cells were excluded and the fluorescence in the FITC channel (488 nm/530/30) was measured. The data was fit using log (agonist) vs response in GraphPad Prism Software.

T5 sequence (P12314 16-288 limits assumed): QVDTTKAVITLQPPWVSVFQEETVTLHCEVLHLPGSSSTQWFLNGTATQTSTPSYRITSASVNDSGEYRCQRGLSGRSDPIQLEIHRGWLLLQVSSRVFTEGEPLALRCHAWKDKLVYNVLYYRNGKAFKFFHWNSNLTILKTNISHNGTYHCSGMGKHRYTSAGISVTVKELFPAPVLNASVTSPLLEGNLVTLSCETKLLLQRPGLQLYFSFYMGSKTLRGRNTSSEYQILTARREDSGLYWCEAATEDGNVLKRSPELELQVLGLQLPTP
T6 sequence (P08637 17-208 limits assumed): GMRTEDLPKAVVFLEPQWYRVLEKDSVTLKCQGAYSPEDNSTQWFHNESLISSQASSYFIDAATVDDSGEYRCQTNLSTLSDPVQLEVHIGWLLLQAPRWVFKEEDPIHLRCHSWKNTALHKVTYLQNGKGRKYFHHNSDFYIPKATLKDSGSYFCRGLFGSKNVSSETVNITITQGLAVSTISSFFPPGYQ

Binder	binding result [1]	EC50 [1]	binding response at end of association (RU) [2]	binding response at end of association (RU) [3]	binding response at end of association (RU) [4]	binding response at end of association (RU) [5]	EC50 [6]
B1	no binding	–	–	–	–	–	–
B2	–	19 nM	1.4 RU	6.6 RU	-9.8 RU	-8.5 RU	0.6 nM
B3	–	–	-0.9 RU	0.7 RU	-10 RU	-8.5 RU	0.5 nM
B4	–	–	-0.3 RU	–	-10.7 RU	-9.2 RU	0.5 nM
